Measured values as given in the supplement of paper PMC9112550, “Optimization of the antimicrobial peptide Bac7 by deep mutational scanning” (BMC Biology, 2022).

Tested on: Escherichia coli TOP10
Experiment: shrunken log2 fold change of peptide-encoding DNA abundance (4.5 h post-induction vs induction); higher = less antimicrobial activity (less host growth inhibition)
Settings: time post-induction: 4.5 h; library: site-saturation at positions 5, 18, 19, 20
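Note: peptides expressed intracellularly from a pBAD plasmid library in pooled LB shake-flask culture, induced with 0.3% L-arabinose, DNA abundance read by NGS, three biological replicates, DESeq2 with apeglm shrinkage.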

Sequence	shrunken log2 fold change
RRIRIRPPRLPRPRPRPQDQPRP	-0.242
RRIRRRPPRLPRPRPRPKGKPRP	0.195
RRIRWRPPRLPRPRPRPGSSPRP	-0.0655
RRIRRRPPRLPRPRPRPVCAPRP	0.547
RRIRTRPPRLPRPRPRPVTRPRP	0.229
RRIRKRPPRLPRPRPRPDQRPRP	0.458
RRIRDRPPRLPRPRPRPLWPPRP	0.662
RRIRKRPPRLPRPRPRPPIIPRP	-0.146
RRIRMRPPRLPRPRPRPEKIPRP	0.856
RRIRQRPPRLPRPRPRPLCLPRP	-0.253
RRIRGRPPRLPRPRPRPEFDPRP	1.8
RRIRLRPPRLPRPRPRPHMVPRP	-0.336
RRIRCRPPRLPRPRPRPGYFPRP	-0.394
RRIRYRPPRLPRPRPRPWWHPRP	-0.757
RRIRSRPPRLPRPRPRPMVDPRP	0.197
RRIRVRPPRLPRPRPRPGEIPRP	0.0835
RRIRIRPPRLPRPRPRPTKNPRP	-0.355
RRIRIRPPRLPRPRPRPMPSPRP	-0.0227
RRIRRRPPRLPRPRPRPHMQPRP	0.0237
RRIRARPPRLPRPRPRPCDSPRP	0.0469
RRIRTRPPRLPRPRPRPQHRPRP	-0.0713
RRIRFRPPRLPRPRPRPPGLPRP	0.573
RRIRNRPPRLPRPRPRPYENPRP	-0.0659
RRIRTRPPRLPRPRPRPQGVPRP	-0.0062
RRIRFRPPRLPRPRPRPQDRPRP	-0.591

Sequence	shrunken log2 fold change
RRIRFRPPRLPRPRPRPARIPRP	-0.0549
RRIRKRPPRLPRPRPRPRYRPRP	-0.0384
RRIRERPPRLPRPRPRPWLRPRP	0.0269
RRIRDRPPRLPRPRPRPGHWPRP	0.315
RRIRRRPPRLPRPRPRPRSKPRP	0.29
RRIRTRPPRLPRPRPRPWWYPRP	-0.308
RRIRIRPPRLPRPRPRPHKLPRP	-0.552
RRIRHRPPRLPRPRPRPANIPRP	-0.291
RRIRYRPPRLPRPRPRPRFYPRP	-0.45
RRIRLRPPRLPRPRPRPAIMPRP	-0.16
RRIRYRPPRLPRPRPRPCHAPRP	-0.702
RRIRERPPRLPRPRPRPNTAPRP	0.0197
RRIRWRPPRLPRPRPRPNHYPRP	-0.605
RRIRKRPPRLPRPRPRPWMHPRP	0.00994
RRIRRRPPRLPRPRPRPANVPRP	-0.15
RRIRQRPPRLPRPRPRPKNWPRP	0.139
RRIRHRPPRLPRPRPRPWADPRP	-0.36
RRIRLRPPRLPRPRPRPCTRPRP	-0.0398
RRIRDRPPRLPRPRPRPIKKPRP	0.0559
RRIRFRPPRLPRPRPRPWKKPRP	-0.00973
RRIRHRPPRLPRPRPRPEQMPRP	0.023
RRIRYRPPRLPRPRPRPVIQPRP	-0.607
RRIRKRPPRLPRPRPRPCRNPRP	-0.0611
RRIRIRPPRLPRPRPRPHYKPRP	-0.756
RRIRDRPPRLPRPRPRPRMQPRP	-0.196

Sequence	shrunken log2 fold change
RRIRRRPPRLPRPRPRPGRFPRP	0.451
RRIRRRPPRLPRPRPRPRLEPRP	0.508
RRIRYRPPRLPRPRPRPSAHPRP	-0.117
RRIRERPPRLPRPRPRPFFNPRP	1.38
RRIRCRPPRLPRPRPRPIKYPRP	-0.608
RRIRNRPPRLPRPRPRPAIQPRP	-0.0231
RRIRKRPPRLPRPRPRPVNEPRP	-0.00608
RRIRERPPRLPRPRPRPQPAPRP	0.171
RRIRARPPRLPRPRPRPPIIPRP	-0.308
RRIRGRPPRLPRPRPRPGIGPRP	0.942
RRIRHRPPRLPRPRPRPGVIPRP	-0.0357
RRIRIRPPRLPRPRPRPYCEPRP	-0.21
RRIRLRPPRLPRPRPRPTNIPRP	-0.421
RRIRNRPPRLPRPRPRPYPCPRP	-0.00822
RRIRIRPPRLPRPRPRPWYAPRP	-0.644
RRIRFRPPRLPRPRPRPLVIPRP	-0.78
RRIRERPPRLPRPRPRPRTHPRP	-0.574
RRIRHRPPRLPRPRPRPHKGPRP	-0.277
RRIRNRPPRLPRPRPRPGSKPRP	0.00175
RRIRNRPPRLPRPRPRPFYKPRP	-0.575
RRIRERPPRLPRPRPRPVSYPRP	0.0843
RRIRARPPRLPRPRPRPGRPPRP	0.801
RRIRSRPPRLPRPRPRPDMNPRP	0.0168
RRIRLRPPRLPRPRPRPELVPRP	0.113
RRIRLRPPRLPRPRPRPYGIPRP	-0.00489

Sequence	shrunken log2 fold change
RRIRNRPPRLPRPRPRPMVDPRP	-0.131
RRIRQRPPRLPRPRPRPLWDPRP	-0.0887
RRIRFRPPRLPRPRPRPGIQPRP	-0.11
RRIRMRPPRLPRPRPRPCMQPRP	-0.143
RRIRGRPPRLPRPRPRPNFDPRP	0.491
RRIRNRPPRLPRPRPRPNHSPRP	-0.525
RRIRVRPPRLPRPRPRPCTQPRP	-0.322
RRIRRRPPRLPRPRPRPASTPRP	-0.0241
RRIRERPPRLPRPRPRPKCPPRP	0.0136
RRIRMRPPRLPRPRPRPKTCPRP	0.12
RRIRYRPPRLPRPRPRPYELPRP	-0.0164
RRIRQRPPRLPRPRPRPVNAPRP	0.00432
RRIRERPPRLPRPRPRPHQHPRP	-0.449
RRIRGRPPRLPRPRPRPEYIPRP	0.252
RRIRKRPPRLPRPRPRPKFFPRP	0.219
RRIRCRPPRLPRPRPRPWVLPRP	-0.265
RRIRVRPPRLPRPRPRPHHTPRP	-0.731
RRIRVRPPRLPRPRPRPMQGPRP	-0.0882
RRIRRRPPRLPRPRPRPCALPRP	-0.22
RRIRFRPPRLPRPRPRPEARPRP	-0.137
RRIRIRPPRLPRPRPRPIARPRP	0.136
RRIRARPPRLPRPRPRPETEPRP	1.39
RRIRFRPPRLPRPRPRPAVYPRP	-0.35
RRIRIRPPRLPRPRPRPDNTPRP	-0.947
RRIRSRPPRLPRPRPRPRSGPRP	0.237

Sequence	shrunken log2 fold change
RRIRGRPPRLPRPRPRPMTYPRP	0.274
RRIRFRPPRLPRPRPRPGDPPRP	0.566
RRIRWRPPRLPRPRPRPYPVPRP	3.67
RRIRIRPPRLPRPRPRPPSGPRP	0.537
RRIRKRPPRLPRPRPRPQKNPRP	0.319
RRIRPRPPRLPRPRPRPWWSPRP	0.361
RRIRLRPPRLPRPRPRPSAIPRP	-0.189
RRIRWRPPRLPRPRPRPMQDPRP	-0.13
RRIRVRPPRLPRPRPRPVLWPRP	0.453
RRIRKRPPRLPRPRPRPRFMPRP	0.102
RRIRQRPPRLPRPRPRPNNNPRP	-0.825
RRIRMRPPRLPRPRPRPCDQPRP	-0.134
RRIRLRPPRLPRPRPRPKGCPRP	-0.0474
RRIRERPPRLPRPRPRPKYSPRP	-0.866
RRIRPRPPRLPRPRPRPLYRPRP	-0.181
RRIRCRPPRLPRPRPRPQAPPRP	0.211
RRIRRRPPRLPRPRPRPCKWPRP	-0.0414
RRIRRRPPRLPRPRPRPTHEPRP	0.338
RRIRLRPPRLPRPRPRPCFEPRP	-0.0179
RRIRFRPPRLPRPRPRPHIYPRP	-1.22
RRIRQRPPRLPRPRPRPFPYPRP	0.0303
RRIRVRPPRLPRPRPRPMAMPRP	-0.00688
RRIRPRPPRLPRPRPRPEPHPRP	0.298
RRIRTRPPRLPRPRPRPCHWPRP	-0.00233
RRIRNRPPRLPRPRPRPPWYPRP	-0.224

Sequence	shrunken log2 fold change
RRIRYRPPRLPRPRPRPEYDPRP	-0.104
RRIRMRPPRLPRPRPRPYHMPRP	-0.000687
RRIRRRPPRLPRPRPRPQKSPRP	-0.106
RRIRERPPRLPRPRPRPYVKPRP	0.04
RRIRDRPPRLPRPRPRPRLCPRP	0.265
RRIRVRPPRLPRPRPRPMWVPRP	0.0736
RRIRLRPPRLPRPRPRPNACPRP	0.127
RRIRQRPPRLPRPRPRPARFPRP	0.0469
RRIRHRPPRLPRPRPRPAFFPRP	0.0438
RRIRSRPPRLPRPRPRPTMLPRP	-0.119
RRIRMRPPRLPRPRPRPYRVPRP	0.111
RRIRHRPPRLPRPRPRPHYSPRP	-0.142
RRIRARPPRLPRPRPRPTWKPRP	-0.0384
RRIRARPPRLPRPRPRPDNSPRP	-0.269
RRIRHRPPRLPRPRPRPHSTPRP	-0.349
RRIRQRPPRLPRPRPRPAQMPRP	-0.15
RRIRQRPPRLPRPRPRPAIDPRP	0.0942
RRIRERPPRLPRPRPRPMEAPRP	-0.261
RRIRLRPPRLPRPRPRPIFMPRP	-0.414
RRIRTRPPRLPRPRPRPMHSPRP	0.02
RRIRDRPPRLPRPRPRPYDYPRP	-0.097
RRIRVRPPRLPRPRPRPGQNPRP	-0.104
RRIRDRPPRLPRPRPRPQQQPRP	-0.114
RRIRYRPPRLPRPRPRPAVWPRP	0.11
RRIRMRPPRLPRPRPRPHWYPRP	-0.484
